Results on one molecule are retold here after paper PMC2879411, “Molecular Basis for the Dual Function of Eps8 on Actin Dynamics: Bundling and Capping” (PLoS Biology, 2010).

The target of the assay is monomeric actin (CaATP-G-actin) from rabbit muscle, unlabelled (rabbit, UniProt P68135 1-377). The assay can be described thus: cell-based or functional assay.

B1: Eps8 isolated predicted helix H5 (residues 765–788) (peptide)
chain: VCPEGARVFNQITVQKAALEDSNG
Turning to B1, the “Kd from inhibition of barbed end growth (spectrin-actin seeds)” value amounted to 40 µM and the “Kd from inhibition of pointed end growth (gelsolin-actin seeds)” value was 32 µM.
